From publication PMC11076500, “Impact of distinct FG nucleoporin repeats on Nup98 self-association” (Nature Communications, 2024)
Positions count from the first letter of the chain named. Names may count otherwise.

B1: FG-repeat domain of human Nup98 (Nup98^FG; residues 1-384), wild type (protein)
chain: MFNKSFGTPFGGGTGGFGTTSTFGQNTGFGTTSGGAFGTSAFGSSNNTGGLFGNSQTKPGGLFGTSSFSQPATSTSTGFGFGTSTGTANTLFGTASTGTSLFSSQNNAFAQNKPTGFGNFGTSTSSGGLFGTTNTTSNPFGSTSGSLFGPSSFTAAPTGTTIKFNPPTGTDTMVKAGVSTNISTKHQCITAMKEYESKSLEELRLEDYQANRKGPQNQVGAGTTTGLFGSSPATSSATGLFSSSTTNSGFAYGQNKTAFGTSTTGFGTNPGGLFGQQNQQTTSLFSKPFGQATTTQNTGFSFGNTSTIGQPSTNTMGLFGVTQASQPGGLFGTATNTSTGTAFGTGTGLFGQTNTGFGAVGSTLFGNNKLTTFGSSTTSAPSFG
B2: Nup98^FG F319S mutant (protein)
chain: B1 chain with F319S
B3: Nup98^FG F102S mutant (protein)
chain: B1 chain with F102S
B4: Nup98^FG F228S mutant (protein)
chain: B1 chain with F228S
B5: Nup98^FG F102S/F319S double mutant (protein)
chain: B1 chain with F102S, F319S
B6: Nup98^FG(298-327) peptide (peptide, UniProt P52948 298-327, looked up)
peptide: TGFSFGNTSTIGQPSTNTMGLFGVTQASQP
notes: Forms amyloid fibrils; each fibril layer holds five peptides (four parallel, one antiparallel); source: synthetic peptide (solid-phase synthesis, Genscript)

Each protein was assayed against P52948 (assay: 1D 1H NMR (loss of the signal of soluble protein); 100 μM protein in 50 mM sodium phosphate, 1 mM TCEP; pH raised from 3 to 7 with NaOH, measured immediately (deadtime ~5 min); 5 °C; amide region integrated; self-association into particles not detectable by NMR). Conditions: other: 1D 1H NMR (loss of the signal of soluble protein).

Protein | percent of the protein aggregated just after changing the pH to 7
B1 | 67 % of the wild-type protein forms aggregates
B2 | only 28 and 23 % of the protein aggregated, respectively
B3 | only 28 and 23 % of the protein aggregated, respectively
B4 | in the F228S mutant 46% of the protein aggregates
B5 | only 28 and 23 % of the protein aggregated, respectively

Target: the molecule itself
Assay: cryo-EM structure; amyloid fibrils from 2 mM peptide in water, 25 °C for one day; helical reconstruction, 2.67 Å; five peptides in each layer
Conditions: not given

Protein | binding result
B6 | binds
